Where two headings read alike, the source gives them in different places.
T1: Ddc1 (S. cerevisiae, UniProt Q08949 1-612)
T1 sequence: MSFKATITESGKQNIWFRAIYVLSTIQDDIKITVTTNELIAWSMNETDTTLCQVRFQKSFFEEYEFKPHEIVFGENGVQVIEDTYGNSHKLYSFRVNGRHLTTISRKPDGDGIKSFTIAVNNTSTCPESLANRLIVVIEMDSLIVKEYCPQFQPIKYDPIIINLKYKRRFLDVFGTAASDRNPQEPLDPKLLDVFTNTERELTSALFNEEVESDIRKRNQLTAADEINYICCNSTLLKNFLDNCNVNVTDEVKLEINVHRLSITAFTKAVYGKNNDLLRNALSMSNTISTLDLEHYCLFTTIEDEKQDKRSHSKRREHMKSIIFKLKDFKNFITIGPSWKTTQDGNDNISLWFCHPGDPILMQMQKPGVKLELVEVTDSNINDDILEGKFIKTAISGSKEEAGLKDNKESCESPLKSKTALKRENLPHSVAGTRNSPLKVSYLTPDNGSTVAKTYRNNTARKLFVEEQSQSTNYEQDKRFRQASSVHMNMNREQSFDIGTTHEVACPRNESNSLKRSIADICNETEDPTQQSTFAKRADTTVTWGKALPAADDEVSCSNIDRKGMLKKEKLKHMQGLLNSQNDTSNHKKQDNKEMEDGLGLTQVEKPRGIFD

B1: Rad17 (natural protein, S. cerevisiae)
chain: MRINSELANKFSASTVHLEHITTALSCLTPFGSKDDVLIFIDADGLSFVRENNHVIKIQLLLSRELFMSYSYRNETEDHMKLCVKINHILDSVSVMNRNSDDIVECTLSYDGHGSPFVLIFEDSFISERVEYSTYLIKDFDTNGLELDRERISFEAIIKGEALHSALKDLKEIGCKECYVYAKTEANDENVFALISKSQLGFSKIKLPSNRSILEKLQVFDGDSTTVIDGFAVIGFFDFTSFDKIRKSTKIASKVLFRMDVHGVLSVNILSQTDDVIITDTTRPSNNRPGSIRQLQLPKDYPGIVIEVCMLEKESIDEAAQTEIELLMETNELGNRNSFKKSTIRKRYGTDKGNETSNDNLLQLNGKKIKLPSEEENNKNRESEDEENHCKYPTKDIPIFF
B2: 10-nt gapped DNA (cryo-EM) (mixed)
DNA 1: CGGTATAGGCGATACGAATCTTTTTTTTTTCCGTATAGCCGTAGCGAGCC
DNA 2: GGCTCGCTACGGCTATACGG
DNA 3: GATTCGTATCGCCTATACCG
B3: 5-nt gapped DNA (cryo-EM) (mixed)
DNA 1: CGGTATAGGCGATACGAATCTTTTTCCGTATAGCCGTAGCGAGCC
DNA 2: GGCTCGCTACGGCTATACGG
DNA 3: GATTCGTATCGCCTATACCG
B4: 10-nt gap DNA (loading) (mixed)
DNA 1: CGGTATAGGCGATACGAATCTTTTTTTTTTCCGTATAGCCGTAGCGAGCCCGACCATACC
DNA 2: GGTATGGTCGGGCTCGCTACGGCTATACGG
DNA 3: GATTCGTATCGCCTATACCG
modifications: 5' phosphate on primer 2
B5: Mec3 (natural protein, S. cerevisiae, UniProt Q02574 1-474, looked up)
chain: MKLKLIVNGCEAPDDYKLLRTTINTVASLRKTAILRFNSERLTIISTPKSSLNSSNNGTILRGDTGQLWCTIPHDVFRLYTVISARELNTITMECNCDSLLSVFKRYDRVMNQGSSSNMTIKLQSMPEWNTNNGTLSGGTAGGVDTTSKPNPICALGITFEEIVHTSGPNDAIVMNGGVDEHNGLPTTVGTGNLLASNKVIMHSFKVPVKLLFRAQDTRIQEPMINYIQLMMYKLPPISGEFGSAFHGFIRRVERYSNVNHIHLMGVKKKEHGNEGDDVELKIIVNELDWHLEICWNGPLDSVIQRQEGLTDNPSQNQHIDTDGRQEEGSLPIIEADKPMSSLYTNTRDREMEENIRYDEDLLRIEDSSIADTRGNIYTADTSGDTEFNDISVMVEKAEQESSSTHEVIIRCKDWKVCSKLYAAFEEVVLAISHDESCVFHCSLDRGSLEDSEDVEKPRERGQIIYYIARSKGL

Assays:
Mec3 = molecular target: B5; assay: cryo-EM structure
[1] = molecular target: T2, Rad24-RFC clamp loader;9-1-1 checkpoint clamp (Saccharomyces cerevisiae;Saccharomyces …, UniProt P32641;P40339;P38629;P40348;P38251;Q08949;Q02574;P48581 …, |); assay: cryo-EM
[2] = molecular target: T2, Rad24-RFC clamp loader;9-1-1 checkpoint …; assay: cryo-EM; remark: listed apart in the source
[3] = molecular target: Rad24-RFC clamp loader;32P-9-1-1 checkpoint clamp (Saccharomyces cerevisiae;Saccharomyces …, UniProt P32641;P40339;P38629;P40348;P38251;Q08949;Q02574;P48581 …, |); assay: magnetic bead clamp loading
Ddc1 = molecular target: T1, Ddc1; assay: cryo-EM structure

Binder: B1
binding result (Mec3): binds

Binder: B2
binding result [1]: binds

Binder: B3
binding result [2]: binds

Binder: B4
binding result [3]: binds

Binder: B5
binding result (Ddc1): binds

— article PMC10529453 (Cell reports, 2023)
